Data set [1] has as its target T1, YTHDF2 (Homo sapiens, UniProt Q9Y5A9 385-576).
T1 sequence: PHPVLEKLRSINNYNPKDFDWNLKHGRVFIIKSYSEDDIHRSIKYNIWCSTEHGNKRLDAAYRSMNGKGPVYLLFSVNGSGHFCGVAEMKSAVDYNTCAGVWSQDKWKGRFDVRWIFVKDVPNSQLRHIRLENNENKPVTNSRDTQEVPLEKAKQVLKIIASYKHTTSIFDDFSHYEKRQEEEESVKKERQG
Kind of data set: EMSA; 1 mM MgCl2; up to 5 uM protein; MST: 50 mM Tris pH 7.5, 150 mM NaCl, 0.05% Tween 20, 25 C; EMSA: 10 mM HEPES pH 7.3, 5% glycerol, 20 mM KCl, 1 mM MgCl2, 1 mM DTT, RNasin, 4 nM RNA, 4 C. The conditions noted are these: protein: recombinant; tags: GST (pGEX-6P-1); label: 3' biotin; random coil single strand.

The target of data set [2] is T2, FTO (Homo sapiens, UniProt Q9C0B1 1-505). Put plainly: MST (label-free); 1 mM NiSO4, 500 uM NOG; MST: 50 mM Tris pH 7.5, 150 mM NaCl, 0.05% Tween 20, 25 C; EMSA: 10 mM HEPES pH 7.3, 5% glycerol, 20 mM KCl, 1 mM MgCl2, 1 mM DTT, RNasin, 4 nM RNA, 4 C. The conditions noted are these: protein: recombinant, tags: His6 (pNIC28-Bsa4).
T2 sequence (Q9C0B1 whole entry): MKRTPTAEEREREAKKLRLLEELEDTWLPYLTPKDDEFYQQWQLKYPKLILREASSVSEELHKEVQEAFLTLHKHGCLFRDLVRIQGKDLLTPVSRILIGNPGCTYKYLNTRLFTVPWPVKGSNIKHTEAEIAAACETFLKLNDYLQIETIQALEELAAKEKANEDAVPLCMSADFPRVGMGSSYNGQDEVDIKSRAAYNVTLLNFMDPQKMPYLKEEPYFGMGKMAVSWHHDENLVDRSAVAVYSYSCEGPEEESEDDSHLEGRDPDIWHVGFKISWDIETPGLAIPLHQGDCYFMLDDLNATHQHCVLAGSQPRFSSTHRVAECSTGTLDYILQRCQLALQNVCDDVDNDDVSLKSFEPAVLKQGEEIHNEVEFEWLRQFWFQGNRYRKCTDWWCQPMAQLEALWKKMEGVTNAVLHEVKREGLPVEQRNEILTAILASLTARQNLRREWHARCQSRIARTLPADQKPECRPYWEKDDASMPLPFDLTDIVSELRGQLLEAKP
Data set [3] has as its target T3, ALKBH5 (Homo sapiens, UniProt Q6P6C2 66-292). Kind of data set: MST (label-free); 1 mM MnCl2, NOG presumably as for FTO; MST: 50 mM Tris pH 7.5, 150 mM NaCl, 0.05% Tween 20, 25 C; EMSA: 10 mM HEPES pH 7.3, 5% glycerol, 20 mM KCl, 1 mM MgCl2, 1 mM DTT, RNasin, 4 nM RNA, 4 C. The conditions noted are these: protein: recombinant, tags: His6 (pNIC28-Bsa4).
Data set [4] concerns the target T2, FTO. Put plainly: EMSA; 1 mM MgCl2; no binding at 1250-fold excess protein (5 uM); MST: 50 mM Tris pH 7.5, 150 mM NaCl, 0.05% Tween 20, 25 C; EMSA: 10 mM HEPES pH 7.3, 5% glycerol, 20 mM KCl, 1 mM MgCl2, 1 mM DTT, RNasin, 4 nM RNA, 4 C. The settings on record: protein: recombinant; tags: His6 (pNIC28-Bsa4); label: 3' biotin; blunt self-complementary duplex, 2 copies of one strand.

The target in data set [5] is T3, ALKBH5. The data set is described as above. The conditions noted are these: protein: recombinant; tags: His6 (pNIC28-Bsa4); label: 3' biotin; blunt self-complementary duplex, 2 copies of one strand.

T3 sequence (Q6P6C2 66-292): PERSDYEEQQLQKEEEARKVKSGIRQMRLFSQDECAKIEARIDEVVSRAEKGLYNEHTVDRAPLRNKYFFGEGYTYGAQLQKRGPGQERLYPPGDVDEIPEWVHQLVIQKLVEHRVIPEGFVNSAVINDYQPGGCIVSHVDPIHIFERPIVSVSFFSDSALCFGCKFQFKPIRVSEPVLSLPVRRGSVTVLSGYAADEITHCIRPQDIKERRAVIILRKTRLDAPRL

B1: biotin-11 (ssRNA)
RNA: GCGGACUCCAGAUG
modifications: m6A at position 5
Turning to B1, the binding result in data set [1] is recorded as “binds”.

B2: 11 (ssRNA)
RNA: GCGGACUCCAGAUG
modifications: m6A at position 5
In the case of B2, the dissociation constant (Kd) in data set [2] (random coil single strand) came out at 97.1 ± 6.66 µM; in data set [3] (random coil single strand), 52.9 ± 2.21 µM.

B3: biotin-15 (dsRNA)
RNA 1: GCGGACUAGUCCGC
RNA 2: GCGGACUAGUCCGC
modifications: m6A at position 5 of each strand
As to B3, the binding result in data set [4] and in data set [5] was “no binding” in each case.

B4: 25 (structured_RNA)
RNA: GCGGACUCCACCGC
modifications: m6A at position 5
Consider B4, for which the Kd in data set [2] (hairpin) turned out to be 91.3 ± 4.65 µM; in data set [3] (hairpin) it was 75.3 ± 2.01 µM.

Values taken from paper PMC4860565, “N6-Methyladenosine: a conformational marker that regulates the substrate specificity of human demethylases FTO and ALKBH5”.
